Assay results: patent publication US20170291930A1 (UNIVERSITY OF MARYLAND BALTIMORE, published 2017)
No end group written: not given here.

What follows are binders tested against purified recombinant Sap9 (C. albicans secreted aspartic protease 9) (Candida albicans) (assay: cell-based or functional assay).

Compared with DSHAKRHHGYRRKFHEKHHSHRGY [Hst-5 synthetic peptide K11R], DSHAKRHHGYKRKFHERHHSHRGY [Hst-5 synthetic peptide K17R] is higher in “intact peptide remaining after 2 h with 6.25 ug/mL Sap9” value: 20% for the first, greater than 60% for the second.

Going from DSHARRHHGYKRKFHEKHHSHRGY [Hst-5 synthetic peptide K5R] to DSHAKRHHGYKRKFHELHHSHRGY [Hst-5 synthetic peptide K17L], the “intact peptide remaining after 2 h with 6.25 ug/mL Sap9” value rises from 4.5% to greater than 60%.

In order of rising “intact peptide remaining after 2 h at 37 C with 3.13 ug/mL Sap9 (gel densitometry)” value:
1. DSHAKRHHGYKRKFHEKHHSHRGY (also: hydrochloride salt) [parent Hst-5 peptide (Histatin-5)]  47%
2. DSHAKRHHGYKRKFHELHHSHRGY [Hst-5 synthetic peptide K17L]  77%
3. DSHAKRHHGYKRKFHERHHSHRGY [Hst-5 synthetic peptide K17R]  82%
